These results are taken from article PMC3138748, “A Small Peptide Modeled after the NRAGE Repeat Domain Inhibits XIAP-TAB1-TAK1 Signaling for NF-κB Activation and Apoptosis in P19 Cells” (PLoS ONE, 2011).

Common to all, as to experiment: FRET or BRET; donor dequenching ECFP:EYFP FRET, confocal; co-transfected 293T cells, fixed with 4% paraformaldehyde 48 h after transfection; no BMP ligand
What all share (settings): partners not purified
On the technique in general: Bioluminescence resonance energy transfer reports proximity on the nanometre scale.

The target of assay [1] is T1, CFP-NRAGE (full-length NRAGE) (UniProt Q9ES73 1-775).
T1 construct: NRAGE (MAGE-D1), full length; the cloning of this construct is not described; also called C-NR; source: 293T, co-transfected, in fixed cells
T1 sequence (looked up): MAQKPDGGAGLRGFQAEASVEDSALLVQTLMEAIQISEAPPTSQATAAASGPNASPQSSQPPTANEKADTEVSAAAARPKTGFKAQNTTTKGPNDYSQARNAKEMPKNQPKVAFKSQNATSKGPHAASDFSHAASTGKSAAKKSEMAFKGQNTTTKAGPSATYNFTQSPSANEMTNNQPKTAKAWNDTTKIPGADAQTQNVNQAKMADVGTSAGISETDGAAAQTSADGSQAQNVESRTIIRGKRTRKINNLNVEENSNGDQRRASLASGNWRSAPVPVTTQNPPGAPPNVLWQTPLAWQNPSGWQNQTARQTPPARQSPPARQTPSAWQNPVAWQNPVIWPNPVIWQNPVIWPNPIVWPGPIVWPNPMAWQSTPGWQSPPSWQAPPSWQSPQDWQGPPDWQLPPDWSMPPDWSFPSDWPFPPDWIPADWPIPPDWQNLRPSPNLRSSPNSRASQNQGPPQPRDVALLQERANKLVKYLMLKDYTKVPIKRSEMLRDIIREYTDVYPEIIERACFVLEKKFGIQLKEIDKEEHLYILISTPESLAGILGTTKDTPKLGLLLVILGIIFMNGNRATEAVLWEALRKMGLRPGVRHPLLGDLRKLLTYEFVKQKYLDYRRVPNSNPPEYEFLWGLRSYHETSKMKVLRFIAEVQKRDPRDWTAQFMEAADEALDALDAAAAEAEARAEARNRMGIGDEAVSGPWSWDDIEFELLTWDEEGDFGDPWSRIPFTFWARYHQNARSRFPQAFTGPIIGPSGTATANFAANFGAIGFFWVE

The next assay addresses T2, ECFP-XIAP (UniProt Q60989 1-496).
T2 construct: also called C-X; source: 293T, co-transfected, in fixed cells; not shown: ECFP, N-terminal, kept

The target of assay [2] is T3, YFP-NRAGE (full-length NRAGE) (UniProt Q9ES73 1-775).
T3 construct: NRAGE (MAGE-D1), full length; the cloning of this construct is not described; also called Y-NR; source: 293T, co-transfected, in fixed cells
T3 sequence (looked up): T1 sequence (looked up)

Another assay has as its target T4, EYFP-XIAP (UniProt Q60989 1-496).
T4 construct: also called Y-X; source: 293T, co-transfected, in fixed cells; not shown: EYFP, N-terminal, kept

T4 sequence (Q60989 whole entry): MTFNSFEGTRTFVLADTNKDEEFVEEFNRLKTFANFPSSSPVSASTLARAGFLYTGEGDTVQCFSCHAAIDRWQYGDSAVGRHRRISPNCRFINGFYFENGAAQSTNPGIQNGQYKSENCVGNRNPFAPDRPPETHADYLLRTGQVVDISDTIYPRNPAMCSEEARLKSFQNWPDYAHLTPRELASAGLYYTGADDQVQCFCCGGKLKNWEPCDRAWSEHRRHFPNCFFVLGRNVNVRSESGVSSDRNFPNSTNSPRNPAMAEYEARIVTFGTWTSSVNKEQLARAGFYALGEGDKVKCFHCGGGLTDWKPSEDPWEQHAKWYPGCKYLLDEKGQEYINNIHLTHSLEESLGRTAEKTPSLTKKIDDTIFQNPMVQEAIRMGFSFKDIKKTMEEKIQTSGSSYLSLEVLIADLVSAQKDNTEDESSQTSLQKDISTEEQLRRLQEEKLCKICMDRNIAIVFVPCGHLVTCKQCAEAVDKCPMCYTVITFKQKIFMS
T2 sequence (Q60989 whole entry): as above

B1: NRAGE peptide-YFP (NRAGE peptide DNA in pEYFP-N1) (peptide)
chain: PPAWQTPPAWQTPPAWQTPPAWQT
notes: four repeats of the final consensus hexapeptide PPAWQT of the NRAGE repeat domain; also called pep-Y; NRAGE peptide DNA-YFP; source: 293T, co-transfected, in fixed cells; not shown: EYFP, C-terminal, kept
On to B1, for which the “average peak energy transfer efficiency (FRET)” value in assay [1] was found to be 0.36%; in the assay with ECFP-XIAP it was 0.34%.

B2: NRAGE peptide-CFP (NRAGE peptide DNA in pECFP-N1) (peptide)
chain: PPAWQTPPAWQTPPAWQTPPAWQT
notes: four repeats of the final consensus hexapeptide PPAWQT of the NRAGE repeat domain; also called pep-C; NRAGE peptide DNA-CFP; source: 293T, co-transfected, in fixed cells; not shown: ECFP, C-terminal, kept
For the molecule B2, the entries for the “average peak energy transfer efficiency (FRET)” value (in assay [2]; with EYFP-XIAP) were 0.41% and 0.46%, respectively.
